Data on 17 sequences can be found in the DeepSol protein solubility set.

This data set is described as follows: soluble on expression in E. coli; label from the status in PepcDB or PDB records.
As to “MGRSNKHDVTSTTPSLAIVQANPHPHKDVVPTEAPIVSSYNDHIRPLLDTVDKLRNLNVMQEGIQLPTIVVVGDQSSGKSSVLESLAGISLPRGQGICTRVPLVMRLQRSRSPEPEIWLEYGDKIVPTDEEHIAQTICAATDVIAGSGKGVSDTPLTLHVKKAGVPDITMVDLPGITRVPVNGQPENIYEQISRMVMKYIEPQESIILNVLSATVDFTTCESIRMSKQVDKTGERTLAVVTKADMAPEGLLQKVTADDVSIGLGYVCVRNRIGEETYEEARMQEELLFRTHPMLSMINDEIVGIPVLAQKLTQIQGMMISRCLPEIERKINVKMEISVLEFNKLPIVMASTGEALMSLMDIIGSAKESLLRILVHGDFSEYPNDQKMHCTARLAEMLNRFSDNLQAQPQAVTEEFLMDEIKVLEERKCIGLPNFIPRSSFLAILSQHVDGIQDKPVEFIKEIWDYIEVVLSSVITTYSDNFPQIQSSIKRAGRNLMSRTKERSKTTSQQNFINSVLHDENKPENFALPGFGDVKISHLRKYHAHLLQQAFDMKMRITSYWTIVLRRVVDNLALYLQFSVKNLVNSQFQKEIVAEMVDPRAGGGIDRMLEESPSVASKREKLKNSLKLLKESKDVVAAIVDQNSVYADR”, the “soluble on expression in E. coli” value was “soluble”. As to “MGSAEQACGCKGARFCALCETTERVKKLRVVEDKHVNYKVFIYDHIRQIAIPTTNLNSQSSLEDIIDESTSCQSVSTDGSIEIDGLTLIHNFLSESEESKILNMIDTVEWAQSQSGRRKQDYGPKVNFKHKKVKTDTFVGMPEYADMLLNKMSEYDVKKLGNYQPFEMCNLEYEEVKKSAIEMHQDDMWIWGNRLIRYEFLFKKVLFN”, the “soluble on expression in E. coli” value is recorded as “soluble”.

In the case of “MGSDKIHHHHHHAACQGKPLPNTAMHSDAPTEWSFNFFTPKALPAVVTFAAILDVDGNDYRFNTLNSTPDLPGVIGEWNDKDRAPVGYWNHVKRPPRHIIFCWDSIIDKKVYETHLTIPKSVLEQMLMPSKYKDYRGRIAWYNRMQIGLAPEGKVAVWLQGSGSESNYRVTPSVLKTVSGNKLDICKDITRSDFSYGYDKDIIDFIKGKHYPYGNW”, the “soluble on expression in E. coli” value was “not soluble”.

On to “MGSDKIHHHHHHAADRPTQPVRTEVYRLERLDSVLLVDLAVDLTGVHLAPDCTVYLFPLLASENTGDSLSLPPIVLNGPQSDLMYRRRRALGTTSGLEKITPYTVLREGDHALPRIHYRTEVPYAAWMDDVKVWMRDTNCNCDARLVPFAMHTEHIPPLVVERVDTIVIHDTIRLASVASGQSTVASDIPLRKKVTRIQAGYEADIYFPTNEMRILPDHELNRASWMHFVNQVDSIEQDNRNSISGVTVTGYSSPEGYTSNNERLAEKRAKALQAFLENKYGERMEVAVEWVGEDWKQFEKDIEVSDLPERNEILSILRTVSDSNQRKSRLKALNKGKTFGILLREYFPKLRRVSCRIRYVK”, for which the “soluble on expression in E. coli” value is “not soluble”. Under “MGSDKIHHHHHHAALSTNTVAVEKAPDMVAVMGGEPEVMLDKALEALGGIGNFVKKGQKIVIKPNIGWDRSPELAGNTNPKLVKALVKKCLEAGASKVTVFDHTCDNWQKCYETSGIAEAVKEAGGIIMPANDEKYFKEVSIPGGVNLKSAKIHEALIEADAWINVPVLKNHGGAKMTCAMKNYMGIVWDRRFFHQNDLQQCIADICTWQKKPVLNIVDAYRIMHQNGPQGKSAADVATLKSLIASPNIVAIDTAALRLFNQVKKLDMAAVGHIGKGEALKLGTTNLDNVTIKRIKI” stands “not soluble”. On to “MGSDKIHHHHHHACSISYKFNGSSIDYTKVKTISFENFPNRSAGFVWGPMENMFNTALQDIYMQQTRLKQVKRSGDLQLSGEITNYEAFNKGIGSDGYSSMVELRMTVRVNFVNSSNPTENMNGQQFSASREYNSNQQLSAVQDELVNQMIKEIVEQIFNATVANW”, for which the “soluble on expression in E. coli” value is “not soluble”.

Regarding “MGSDKIHHHHHHAETVVVRFGLFAESIPVADLQKAAETGEFPSSLNLFTRRLSEQQRRTLIGALRMRVPLNVVTISRLLNTQIGTTILNDLSRAVVRKDQSGAKALRASLVLGSTAPQGLSILSFITAYPSRSLEINLPQAFQVAGSLNNAFWRTQQFMLAISPQLDPAKPQISIPFDPSQPGNAQVQVLKLNLNDQKRNRQIPADIYWSTSATQEKPVIIYSHGMGSVRTDLHYLAEHLASHGYIFVALEHPGSNQANTDLATKGKVRLLEPQEFLNRPQDVSFVLDVLEKLNQTTGNPLQGKLATNNTMVIGYSFGGGTALSLAGAELQIAGIRERCQNKLTILSLGETIQCVAQELPEKTYQLRDNRIKQAIALTPTTSLMFGETGLTKVQIPTLIVAASADKTTPALTEQILGFSKIPSPKWLVGIIGGTHLSVKDPSTTLDQVDKPNTPLTGGEIVGEQATDVRQFVKAIALAMVAQLTPEAEKYAVFLTPDYAQLASTESFPFRIVTEIPPQAIPIGKQ”, the “soluble on expression in E. coli” value is “not soluble”. Under “MGSDKIHHHHHHAGFGVAGLSEKTYKTVLNTNMGALYSPSLSAQVVDGACYLINYELDLNSPENANAATNGYLTATISVADEITKGQPVFYNVPDSASLLQNEIPVKNLFSNGDYGVYVDGYLFFFITMDMFKDQKNSYTLYWDRSKEPTMVDNVPTYDLFLRVAKVADGTGSAASSIGEVRAFNVKSVLESVNSAEANKDSKSFNLKVNYLNTINEKDSTDLKWASYTVLFQVVKNS” stands “not soluble”; under “MGSDKIHHHHHHAIVSAKWERTSSLQGIQLKQASIEGLFGGKQSISILTIGRAEGYTAFIATTDSLTTTSQLAEQSRSSAAINGSYFSIKEGFSTCYLRKNEAVIDTTTTEERHLRVNGAVHMVDNNIRIIPWNDENEKKGFPLDGDILASGPLLMQDGKTCDFTTIDREFSETRHPRSAIALTKEGDIMLVAVDGRAEGHADGMSIAELAYLLRILKAHCALNLDGGGSTTLWVNGQVVNHPSDNKKFDNKGERKVHNIIAVRRLTNP”, “not soluble”. Under “MGSDKIHHHHHHANDETIEINYGESISLSAVAGKTTRTGSEATTTNSIRNFHVLAFTQGATYMDCDVRKQGNVWSYGDTKFWPETDVDFYSYSPMNTQNGNVSIKVEGDKKIANYNVPGDEDLLYALNQAEKKNEHEGERPVMVNFRHALSQIVFRIRNTSSNLTVFVDAVKVEGIEKQGTFFWPTLSTTTQWQGTEKDTETDNSWGRWNIVYNKENAKQNNYAAEIIPIMEQGFVGSIDASVRDLTVKTDNGYKGLLLLPQTLNPWITKTGGTDENPEYKITGTARVLVKCKLVDTVSNVQLWPNTNSHEETTWVGVSLVGEPKDINGKTEQVWKQGKRYVYTLIFGEGGGFNPDPDPENPDPEPVLVPITFAVTVDDFVEYPQDLDASVPNSNSGQ” stands “not soluble”; under “MGSDKIHHHHHHAQESLFLKDPSTKNKLLQLDLDVGTCFDLAYRGKGNMYTAMSDRKSVFPAINLRLQHFFSRKWGWYTNIRLGIPVKYRRDCYTELVHAVEADYYVNNLIPGTQKPDVNPCLDFGVAYRFENSHWAFYPRLGIGVNSISYQRVCAELKKKGGNELYKIEYRGDDESNYGSESIDAFILSAGITANYKLSRNCFLLLNVNYIQPLGRFTYRKYVTDLYTGEKVERGVYKSSTFARDLNVSVGFGFPFYLGRKTNRKSSHRERTRQLMEQKRKTYGLFPGNK”, “not soluble”; under “MGSDKIHHHHHHAQQPVELPLWPDGAPNSNGLTGGEKEVSPHRLSNVTAPTITVYRAPQPNGMAVIMCPGGGYSRLAMDHEGHDMASWFCGQGITYVVLKYRMPNGHCEVPLSDAERAIRIVREHAGEWNIHPRKIGIMGASAGGHLASTLATHYSAASRPDFQILLYPVVTMTQSTHGGSRKELLGGNPTAEQEVLFSNELQVTSDTPQAFIVLSSDDGAVPPSNGVNYYLALQKNNVPASLHVYPTGGHGWGFRDNFKYKQQWTQELEKWLREGVVFPKETAPMLRIGKTYLGTKYVANTLDQGTEEKLVILPQTVDCLTFVEYTLAQAMGSSFADNLQKIRYRDGVIDGYTSRLHYTSDWIENGVRQGFLEDVTAQNSTQTTKLSLSYMSTHPQKYRQLADSPENVKRMAEHEKALSGKKVHWLPKGKLPDAGLPWIMDGDIIAITTNLPGLDVAHVGMAEYINGKLHLLHASSTLGKVVVSEEPLSQMLRNNKSWSGIRVVRMSHP”, “not soluble”.

For “MGSDKIHHHHHHAQQQELPVPKPHQLKWHEAEMGAVFHYDLHVFDGIRYGQGNNRINPIEDYNIFNPTELNTDQWVQAAKAAGCKFAVLTATHETGFGLWQSDVNPYCLKAVKWRDGKGDIVRDFVNSCRKYGLQPGIYIGIRWNSLLGIHNFKAEGEGAFARNRQAWYKRLCEKMVTELCTRYGDLYMIWFDGGADDPRADGPDVEPIVNKYQPNCLFYHNIDRADFRWGGSETGTVEYPCWSTFPVPCSHHKRIESSIDQLELLKHGDKNGRYWVPAMADTPLRGANGRHEWFWEPDDENNIYPLNTLMDKYEKSVGRNATLILGLTPDPTGLIPAGDAQRLKEMGDEINRRFSSPIARISGQKKSLTLKLGKEQSVNYCIIQENIKNGERIRQYQIEAKVNGKWQTVCKGESVGHKRIEKFEPVEATALRLTVSESIALPDIINFSAYSVK”, the “soluble on expression in E. coli” value is on record as “not soluble”. For “MGSDKIHHHHHHAQTLPFRLSKGAGTFRLGVVCGNESCWLDQCSVKKKGQAYTIKDKLWKEGEIKLIVCPLTDSNGFIMEVSGERLPEEFKLCWAFGACDGADDSAVTDNSIPVASCFHNVFSIEGNAFTTYYGESMKLRTVHGVSPIGSEIRLSDGHKQASPLALFNSGKKTDAPVISALCPWKPQEKLYFCFYQRGDYNYFMLPGLFGKEHKTRSK” the value was “not soluble”. Regarding “MGSDKIHHHHHHAQTTDPNQLKNEGNDALNAKNYAVAFEKYSEYLKLTNNQDSVTAYNCGVCADNIKKYKEAADYFDIAIKKNYNLANAYIGKSAAYRDMKNNQEYIATLTEGIKAVPGNATIEKLYAIYYLKEGQKFQQAGNIEKAEENYKHATDVTSKKWKTDALYSLGVLFYNNGADVLRKATPLASSNKEKYASEKAKADAAFKKAVDYLGEAVTLSPNRTEIKQMQDQVKAMIK”, the “soluble on expression in E. coli” value was “not soluble”. Under “MGSDKIHHHHHHAVSAEEAKELGHKLTEFGAEKAGNADGSIPPYTGGVKDLAIPADFKPGSGHYPDPFKDEKPLVSITKANEAQYAEFLMPGTKALLERLPGFRIDVYKTHRTMAYPDWVLKNTVGCARTAKLVGSVTGDGVEGAFACIPFPIPKNGYEVMWNQNLRYQGVRTDFRFRTILIDESGHKTLMGDNETQFIYQYYDRNGSKLPDNFFRTGFTRFYGPPSEVGMMTLAKYSINDGTDDDTTWIYMPGQRRVRVAPEYKYDTPMAAIGGTLLFDEVGGFQGRMDRFDFKLVGKKEMFVPYNNYRAYNSSDLVGDKYANPDDVRWEKHRVWVVEATLKPGERNIYSHRTYYIDEDTWLIVGYEAYDQSNALYRAGYTLDIVPYDKPRVGQPNAIMYDLTKGNYSVTADQGTPSQHMIPFDDLPNMGNYNTQALLNAGVR” stands “not soluble”. For “MGSDKIHHHHHHCNFDGRPCCWANVPPPDDQLDWQIASGVPVQLQNRGVPQPEGSYLIAYAKSAAPSDEAQFASCSIGCASSDIVVRAKHWQSESVLLQVCLRESFPSNAERNPLINCQEFPYVDGMGTTEVILPKTSLVDIVFVASNFIGDQGDVAILDDIEVSYDRNGSECQN” the value was “not soluble”.
